Consider five sequences from the supplement of paper PMC5998384.

The test system of data set [1] is HeLa Kyoto. Briefly: thermal stability score vs G1/S (z-score of summed log2 fold changes over temperatures); higher = more thermally stable than in G1/S.
In data set [2] the test system is HeLa Kyoto. Nature of the data set: solubility change mitosis vs G1/S (difference of NP-40 vs SDS log2 ratios) (log2 ratio difference); higher = more soluble in mitosis.
Data set [3] concerns HeLa Kyoto. Nature of the data set: melting temperature (median over replicates), in situ; higher = more thermally stable.
Data set [4] deals with HeLa Kyoto. Briefly: solubility in G1/S (NP-40 vs SDS abundance) (log2 ratio); higher = more soluble. The settings on record: cell cycle stage: G1/S.
The mark [5] stands for this setting: cell cycle stage: early G1 (4.5 h after nocodazole release).
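Throughout, for melting temperature (median over replicates), in situ: HeLa Kyoto cells synchronized by double thymidine or nocodazole block, proteins quantified by TMT10plex mass spectrometry, three independent biological replicates.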
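Throughout, for solubility change mitosis vs G1/S (difference of NP-40 vs SDS log2 ratios): synchronized HeLa Kyoto cells (double thymidine block for G1/S, nocodazole release for mitosis), protein amounts in NP-40 versus SDS lysates quantified by mass spectrometry, three biological replicates.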
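Throughout, for solubility in G1/S (NP-40 vs SDS abundance): HeLa Kyoto cells arrested at G1/S by double thymidine block, proteins quantified by TMT10plex mass spectrometry in mild NP-40 versus SDS extracts, three biological replicates.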
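Throughout, for thermal stability score vs G1/S (z-score of summed log2 fold changes over temperatures): synchronized HeLa Kyoto cells, proteins quantified by TMT10plex mass spectrometry, three biological replicates, mitosis taken 0.5 h after nocodazole release, G1/S directly after double thymidine block.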

For the sequence “MRRFLRPGHDPVRERLKRDLFQFNKTVEHGFPHQPSALGYSPSLRILAIGTRSGAIKLYGAPGVEFMGLHQENNAVTQIHLLPGQCQLVTLLDDNSLHLWSLKVKGGASELQEDESFTLRGPPGAAPSATQITVVLPHSSCELLYLGTESGNVFVVQLPAFRALEDRTISSDAVLQRLPEEARHRRVFEMVEALQEHPRDPNQILIGYSRGLVVIWDLQGSRVLYHFLSSQQLENIWWQRDGRLLVSCHSDGSYCQWPVSSEAQQPEPLRSLVPYGPFPCKAITRILWLTTRQGLPFTIFQGGMPRASYGDRHCISVIHDGQQTAFDFTSRVIGFTVLTEADPAATFDDPYALVVLAEEELVVIDLQTAGWPPVQLPYLASLHCSAITCSHHVSNIPLKLWERIIAAGSRQNAHFSTMEWPIDGGTSLTPAPPQRDLLLTGHEDGTVRFWDASGVCLRLLYKLSTVRVFLTDTDPNENFSAQGEDEWPPLRKVGSFDPYSDDPRLGIQKIFLCKYSGYLAVAGTAGQVLVLELNDEAAEQAVEQVEADLLQDQEGYRWKGHERLAARSGPVRFEPGFQPFVLVQCQPPAVVTSLALHSEWRLVAFGTSHGFGLFDHQQRRQVFVKCTLHPSDQLALEGPLSRVKSLKKSLRQSFRRMRRSRVSSRKRHPAGPPGEAQEGSAKAERPGLQNMELAPVQRKIEARSAEDSFTGFVRTLYFADTYLKDSSRHCPSLWAGTNGGTIYAFSLRVPPAERRMDEPVRAEQAKEIQLMHRAPVVGILVLDGHSVPLPEPLEVAHDLSKSPDMQGSHQLLVVSEEQFKVFTLPKVSAKLKLKLTALEGSRVRRVSVAHFGSRRAEDYGEHHLAVLTNLGDIQVVSLPLLKPQVRYSCIRREDVSGIASCVFTKYGQGFYLISPSEFERFSLSTKWLVEPRCLVDSAETKNHRPGNGAGPKKAPSRARNSGTQSDGEEKQPGLVMERALLSDERVLKEIQSTLEGDRGSGNWRSHRAAVGCSLSNGGAE [LLGL2]”, the thermal stability score was -1.83 with HeLa Kyoto [1] (setting [5]) and -2.52 in the data set on HeLa Kyoto [1] (cell cycle stage: mitosis). In the data set with HeLa Kyoto [2], the “solubility change mitosis (log2)” value is -0.0143. For the same sequence, the figures for the melting temperature in the data set on HeLa Kyoto [3] (cell cycle stage: G1/S) and with HeLa Kyoto [3] (cell cycle stage: mitosis) were 51.1 °C and 51.5 °C, respectively. For the same sequence, in the data set on HeLa Kyoto [4], the “solubility in G1/S (log2)” value was -0.27.
Consider “MRRLGPFHPRVHWAAPPSLSSGLHRLLFLRGTRIPSSTTLSPPRHDSLSLDGGTVNPPRVREPTGREAFGPSPASSDWLPARWRNGRGGRPRARLCSGWTAAEEARRNPTLGGLLGRQRLLLRMGGGRLGAPMERHGRASATSVSSAGEQAAGDPEGRRQEPLRRRASSASVPAVGASAEGTRRDRLGSYSGPTSVSRQRVESLRKKRPLFPWFGLDIGGTLVKLVYFEPKDITAEEEEEEVESLKSIRKYLTSNVAYGSTGIRDVHLELKDLTLCGRKGNLHFIRFPTHDMPAFIQMGRDKNFSSLHTVFCATGGGAYKFEQDFLTIGDLQLCKLDELDCLIKGILYIDSVGFNGRSQCYYFENPADSEKCQKLPFDLKNPYPLLLVNIGSGVSILAVYSKDNYKRVTGTSLGGGTFFGLCCLLTGCTTFEEALEMASRGDSTKVDKLVRDIYGGDYERFGLPGWAVASSFGNMMSKEKREAVSKEDLARATLITITNNIGSIARMCALNENINQVVFVGNFLRINTIAMRLLAYALDYWSKGQLKALFSEHEGYFGAVGALLELLKIP [PANK2]”, for which the thermal stability score in the data set with HeLa Kyoto [1] (setting [5]) worked out at 0.0148; in the data set on HeLa Kyoto [1] (cell cycle stage: mitosis) it was 0.653. The “solubility change mitosis (log2)” value in the data set with HeLa Kyoto [2] was -0.196. For the same sequence, the melting temperature in the data set on HeLa Kyoto [3] (cell cycle stage: G1/S) was 53.1 °C; with HeLa Kyoto [3] (cell cycle stage: mitosis), 55.1 °C. The “solubility in G1/S (log2)” value in the data set on HeLa Kyoto [4] is 0.04.
“MRRVTLFLNGSPKNGKVVAVYGTLSDLLSVASSKLGIKATSVYNGKGGLIDDIALIRDDDVLFVCEGEPFIDPQTDSKPPEGLLGFHTDWLTLNVGGRYFTTTRSTLVNKEPDSMLAHMFKDKGVWGNKQDHRGAFLIDRSPEYFEPILNYLRHGQLIVNDGINLLGVLEEARFFGIDSLIEHLEVAIKNSQPPEDHSPISRKEFVRFLLATPTKSELRCQGLNFSGADLSRLDLRYINFKMANLSRCNLAHANLCCANLERADLSGSVLDCANLQGVKMLCSNAEGASLKLCNFEDPSGLKANLEGANLKGVDMEGSQMTGINLRVATLKNAKLKNCNLRGATLAGTDLENCDLSGCDLQEANLRGSNVKGAIFEEMLTPLHMSQSVR [KCTD9]”: the thermal stability score in the data set on HeLa Kyoto [1] (setting [5]) was -0.393; with HeLa Kyoto [1] (cell cycle stage: mitosis), -1.4. Also, in the data set with HeLa Kyoto [2], the “solubility change mitosis (log2)” value was -0.2. The melting temperature with HeLa Kyoto [3] (cell cycle stage: G1/S) worked out at 52.3 °C; in the data set on HeLa Kyoto [3] (cell cycle stage: mitosis), 51 °C. In the data set with HeLa Kyoto [4], the “solubility in G1/S (log2)” value came out at 0.0627.
Turning to “MRSLLLLSAFCLLEAALAAEVKKPAAAAAPGTAEKLSPKAATLAERSAGLAFSLYQAMAKDQAVENILVSPVVVASSLGLVSLGGKATTASQAKAVLSAEQLRDEEVHAGLGELLRSLSNSTARNVTWKLGSRLYGPSSVSFADDFVRSSKQHYNCEHSKINFRDKRSALQSINEWAAQTTDGKLPEVTKDVERTDGALLVNAMFFKPHWDEKFHHKMVDNRGFMVTRSYTVGVMMMHRTGLYNYYDDEKEKLQIVEMPLAHKLSSLIILMPHHVEPLERLEKLLTKEQLKIWMGKMQKKAVAISLPKGVVEVTHDLQKHLAGLGLTEAIDKNKADLSRMSGKKDLYLASVFHATAFELDTDGNPFDQDIYGREELRSPKLFYADHPFIFLVRDTQSGSLLFIGRLVRPKGDKMRDEL [SERPINH1]”, the results for the thermal stability score in the data set on HeLa Kyoto [1] (setting [5]) and in the data set with HeLa Kyoto [1] (cell cycle stage: mitosis) were 4.47 and 4.77, respectively. Moreover, the “solubility change mitosis (log2)” value with HeLa Kyoto [2] was -0.0819. For the same sequence, the melting temperature in the data set on HeLa Kyoto [3] (cell cycle stage: G1/S) came to 54.2 °C; with HeLa Kyoto [3] (cell cycle stage: mitosis) it was 55.2 °C. Also, the “solubility in G1/S (log2)” value with HeLa Kyoto [4] was 0.232.
For the sequence “MRSRSNSGVRLDGYARLVQQTILCYQNPVTGLLSASHEQKDAWVRDNIYSILAVWGLGMAYRKNADRDEDKAKAYELEQNVVKLMRGLLQCMMRQVAKVEKFKHTQSTKDSLHAKYNTATCGTVVGDDQWGHLQVDATSLFLLFLAQMTASGLRIIFTLDEVAFIQNLVFYIEAAYKVADYGMWERGDKTNQGIPELNASSVGMAKAALEAIDELDLFGAHGGRKSVIHVLPDEVEHCQSILFSMLPRASTSKEIDAGLLSIISFPAFAVEDVNLVNVTKNEIISKLQGRYGCCRFLRDGYKTPREDPNRLHYDPAELKLFENIECEWPVFWTYFIIDGVFSGDAVQVQEYREALEGILIRGKNGIRLVPELYAVPPNKVDEEYKNPHTVDRVPMGKVPHLWGQSLYILSSLLAEGFLAAGEIDPLNRRFSTSVKPDVVVQVTVLAENNHIKDLLRKHGVNVQSIADIHPIQVQPGRILSHIYAKLGRNKNMNLSGRPYRHIGVLGTSKLYVIRNQIFTFTPQFTDQHHFYLALDNEMIVEMLRIELAYLCTCWRMTGRPTLTFPISRTMLTNDGSDIHSAVLSTIRKLEDGYFGGARVKLGNLSEFLTTSFYTYLTFLDPDCDEKLFDNASEGTFSPDSDSDLVGYLEDTCNQESQDELDHYINHLLQSTSLRSYLPPLCKNTEDRHVFSAIHSTRDILSVMAKAKGLEVPFVPMTLPTKVLSAHRKSLNLVDSPQPLLEKVPESDFQWPRDDHGDVDCEKLVEQLKDCSNLQDQADILYILYVIKGPSWDTNLSGQHGVTVQNLLGELYGKAGLNQEWGLIRYISGLLRKKVEVLAEACTDLLSHQKQLTVGLPPEPREKIISAPLPPEELTKLIYEASGQDISIAVLTQEIVVYLAMYVRAQPSLFVEMLRLRIGLIIQVMATELARSLNCSGEEASESLMNLSPFDMKNLLHHILSGKEFGVERSVRPIHSSTSSPTISIHEVGHTGVTKTERSGINRLRSEMKQMTRRFSADEQFFSVGQAASSSAHSSKSARSSTPSSPTGTSSSDSGGHHIGWGERQGQWLRRRRLDGAINRVPVGFYQRVWKILQKCHGLSIDGYVLPSSTTREMTPHEIKFAVHVESVLNRVPQPEYRQLLVEAIMVLTLLSDTEMTSIGGIIHVDQIVQMASQLFLQDQVSIGAMDTLEKDQATGICHFFYDSAPSGAYGTMTYLTRAVASYLQELLPNSGCQMQ [PHKA2]”, the thermal stability score was 0.315 in the data set with HeLa Kyoto [1] (setting [5]) and -0.217 with HeLa Kyoto [1] (cell cycle stage: mitosis). In addition, in the data set with HeLa Kyoto [2], the “solubility change mitosis (log2)” value is -0.229. The melting temperature with HeLa Kyoto [3] (cell cycle stage: G1/S) came to 52.6 °C; in the data set on HeLa Kyoto [3] (cell cycle stage: mitosis), 51.7 °C. Moreover, the “solubility in G1/S (log2)” value with HeLa Kyoto [4] came to 0.00161.
